Reference: ChEMBL document CHEMBL4052696, “Varic acid analogues from fungus as PTP1B inhibitors: Biological evaluation and structure-activity relationships” (Bioorg Med Chem Lett, 2017)

How the values were obtained:
Conditions in all cases: Homo sapiens
[1] = compound: CCCc1cc(OC(=O)c2c(O)cc(OC(=O)c3c(O)cc(O)cc3CCC)cc2CCC)cc(O)c1C(=O)O; experiment: Competitive inhibition of PTP1B (unknown origin) assessed as Km(app) for substrate at 0.1 uM using p-nitrophenyl phosphate substrate incubated for 30 mins by Lineweaver-Burk double reciprocal plot (reference value: 1.43 mM)
[2] = compound: CCCc1cc(OC(=O)c2c(O)cc(OC(=O)c3c(O)cc(O)cc3CCC)cc2CCC)cc(O)c1C(=O)O; experiment: Competitive inhibition of PTP1B (unknown origin) assessed as Km(app) for substrate at 0.25 uM using p-nitrophenyl phosphate substrate incubated for 30 mins by Lineweaver-Burk double reciprocal plot (reference value: 1.43 mM)
[3] = compound: CCCc1cc(OC(=O)c2c(O)cc(OC(=O)c3c(O)cc(O)cc3CCC)cc2CCC)cc(O)c1C(=O)O; experiment: Competitive inhibition of PTP1B (unknown origin) assessed as Km(app) for substrate at 0.4 uM using p-nitrophenyl phosphate substrate incubated for 30 mins by Lineweaver-Burk double reciprocal plot (reference value: 1.43 mM)

B1: Tyrosine-protein phosphatase non-receptor type 1 (Homo sapiens), P18031 (protein)
chain: MEMEKEFEQIDKSGSWAAIYQDIRHEASDFPCRVAKLPKNKNRNRYRDVSPFDHSRIKLHQEDNDYINASLIKMEEAQRSYILTQGPLPNTCGHFWEMVWEQKSRGVVMLNRVMEKGSLKCAQYWPQKEEKEMIFEDTNLKLTLISEDIKSYYTVRQLELENLTTQETREILHFHYTTWPDFGVPESPASFLNFLFKVRESGSLSPEHGPVVVHCSAGIGRSGTFCLADTCLLLMDKRKDPSSVDIKKVLLEMRKFRMGLIQTADQLRFSYLAVIEGAKFIMGDSSVQDQWKELSHEDLEPPPEHIPPPPRPPKRILEPHNGKCREFFPNHQWVKEETQEDKDCPIKEEKGSPLNAAPYGIESMSQDTEVRSRVVGGSLRGAQAASPAKGEPSLPEKDEDHALSYWKPFLVNMCVATVLTAGAYLCYRFLFNSNT
B1 was tested, and the Km [1] was 12 mM, the Km [2] was 44 mM and the Km [3] was 91 mM.
